Reference: US20210230599, “STEM-LOOP COMPOSITIONS AND METHODS FOR INHIBITING INTERLEUKIN-8” (VITRISA THERAPEUTICS, INC., published 2021)

B1: Aptamer 269 (ssRNA)
RNA: GGCGACGGUAGAUUAUGGGCAGUGUGACCGCGCC
modifications: 2'-OMe A/C/U, 2'-OMe G in stems S1, S2 and loop L2, 2'-F at other G, 5' C6NH2, 3' idT

The binders below were run against T1, Interleukin-8 (IL8, CXCL8), C-terminal His-tagged (Homo sapiens, UniProt P10145 SEQ:1-72) (assay: TR-FRET; bead flow 13 nM). Conditions: tags: C-terminal 6xHis (Sino Biological); label: Alexa Fluor 647.
Procedure: (§1) Aptamers were synthesized and labeled with ALEXA FLUOR® 647, and binding to IL8 was quantified by Time-Resolved Fluorescence Resonance Energy Transfer (TR-FRET). Briefly, 2-fold dilutions of thermally equilibrated aptamers were made in TR-FRET Buffer (50 mM MOPS, pH 7.4, 125 mM NaCl, 5 mM KCl, 50 μM CHAPS, 0.1 mg/mL BSA, 1 mM CaCl₂ and 1 mM MgCl₂). […] of aptamer or control solution was added to 10 μL of 15 nM C-His-tagged-IL8 (Sino Biological) in a black wall half-area plate (Corning). In the same plate, 10 μl of aptamer solution was added to 10 μl of TR-FRET buffer alone to use for background subtraction. 10 μl of 15 nM anti-His-Eu (Perkin Elmer) was added to each well, the plate was covered with a plate seal and subsequently incubated in the dark for 1 hour at room temperature. The plate was read on a Biotek CYTATION™ 5 plate reader. Samples were excited at 330 nm and fluorescent values were collected at 665 nm. […] Apparent Kd values obtained for the fits are calculated as the concentration of half-maximal binding and shown in Table 10, and fit curves as FIG. 6. […] It is also possible that differences may arise due to TR-FRET being a homogenous solution binding assay, while bead binding has immobilized ligand and is non-homogenous, so bound aptamers may dissociate during analysis resulting in higher calculated Kd values.

Q: Which Kd does the source give for UUAGCCCUGCCAUUGGGGCAUACUUUGGCCGCACU (ssRNA, 2'-F G, 2'-OMe A/C/U, 5' C6NH2, 3' idT) [Aptamer 23] here?
A: 12 nM

Q: How did the Kd turn out when UGCGGCCUCCGUUGACUGUUGUAAUGCCGGGACAGU (ssRNA, 2'-F G, 2'-OMe A/C/U, 5' C6NH2, 3' idT) [Aptamer 14] was run?
A: 6 nM

The binders below were run against T1, Interleukin-8 (IL8, CXCL8), C-terminal … (assay: competition; competition TR-FRET). Conditions: tags: C-terminal His (Sino Biological); stem-loop.
Procedure: To better understand the sequence requirements and to confirm the stem structures of members of the Aptamer 3 family as determined from sequence covariation analysis from both the primary and secondary (degenerate) selections, a series of variants which included mutations and deletions to the predicted stems were synthesized and screened (Table 24). […] Briefly, 2-fold dilutions of thermally equilibrated aptamers were made in TR-FRET Buffer (50 mM MOPS, pH 7.4, 125 mM NaCl, 5 mM KCl, 50 μM CHAPS, 0.1 mg/mL BSA, 1 mM CaCl₂, and 1 mM MgCl₂). 5 μL of aptamer or control solution was added to 5 μl mix of 10 nM C-terminal His-tagged-IL8, 60 nM ALEXA FLUOR® 647-labeled Aptamer, and 5 nM anti-His-Eu (Perkin Elmer) in a black wall low volume 384 well plate (Greiner). For control, 5 μl of 1000-fold excess of unlabeled parent aptamer or 5 μl TR-FRET buffer alone was added to the mix of ALEXA FLUOR® 647-labeled aptamer, His-IL8, and anti-His-Eu. The plate was covered with a plate seal and subsequently incubated in the dark for 1 hour at room temperature. The plate was read on a Biotek CYTATION™ 5 plate reader. Samples were excited at 330 nm and fluorescent values were collected at 665 nm. Data analysis was performed by subtracting the background value and plotting as percent inhibition, normalized to baseline in the absence of competitor. The values were fit by [Inhibitor] vs. response—Variable slope (four parameters) using GraphPad Prism Version 7.0 and then normalized to aptamer control to obtain an IC₅₀ relative to parent aptamer. Data is presented as log values of relative IC₅₀.
(§2) Like L1, most of L2 was also found to be 100% conserved in the degenerate selection, except residue U20, which was ˜92% conserved (FIG. 31). To test sequence requirements of L2, variants of Aptamer 32 were made, where each position of L2 was individually replaced with the other 3 bases and tested for binding in the competition TR-FRET assay.

Q: How did the binding signal turn out when CGGUGGGAAAUGUGAUAUGGGUUGCCG (ssRNA, 2'-F G; 2'-OMe A,C,U; 5' C6NH2; 3' idT) [Aptamer 176] was run?
A: > 10 fold worse than Aptamer 8

Q: CGGUGGGAAAUGUUAGAUGGGUUGCCG (ssRNA, 2'-F G; 2'-OMe A,C,U; 5' C6NH2; 3' idT) [Aptamer 170] was tested. Which binding signal did it give?
A: > 10 fold worse than Aptamer 8

Q: For CGGUGGGAAAUGUGUGAUGGGUUGCCG (ssRNA, 2'-F G; 2'-OMe A,C,U; 5' C6NH2; 3' idT) [Aptamer 173], which binding signal is on record?
A: > 10 fold worse than Aptamer 8

Q: How did the binding signal turn out when CGGUGGGAAAUGUGAGUUGGGUUGCCG (ssRNA, 2'-F G; 2'-OMe A,C,U; 5' C6NH2; 3' idT) [Aptamer 179] was run?
A: > 10 fold worse than Aptamer 8

Q: CGGUGGGAAAUGUAAGAUGGGUUGCCG (ssRNA, 2'-F G; 2'-OMe A,C,U; 5' C6NH2; 3' idT) [Aptamer 169] was tested. Which binding signal did it give?
A: > 10 fold worse than Aptamer 8

Q: CGGUGGGAAAUGUGAAAUGGGUUGCCG (ssRNA, 2'-F G; 2'-OMe A,C,U; 5' C6NH2; 3' idT) [Aptamer 175] was tested. Which binding signal did it give?
A: > 10 fold worse than Aptamer 8

These binders were tested against T1, Interleukin-8 (IL8, CXCL8), C-terminal … (assay: TR-FRET, 500 pM IL8, protein-limited; estimated about 20 pM). Conditions: tags: C-terminal 6xHis (Sino Biological); label: Alexa Fluor 647; stem-loop.
Procedure: Under these assay conditions, the ability to measure the affinity accurately is limited by the input IL8 protein concentration, and the apparent Kd under these protein-limiting conditions was determined to be 8 nM.

Q: For GGCGACGGUAGAUUAUGGGCAGUGUGACCGCGCC (ssRNA, 2'-F G, 2'-OMe A/C/U, 5' C6NH2, 3' idT) [Aptamer 147], which Kd is on record?
A: 0.11 nM

Q: With B1 as the binder, how does the Kd read?
A: 0.126 nM

The binders below were run against T1, Interleukin-8 (IL8, CXCL8), C-terminal … (assay: competition; competition TR-FRET; S2 shortened). Conditions: tags: C-terminal 6xHis (Sino Biological).
Procedure: To better understand the sequence requirements and to confirm the stem structures of members of the Aptamer 3 family as determined from sequence covariation analysis from both the primary and secondary (degenerate) selections, a series of variants which included mutations and deletions to the predicted stems were synthesized and screened (Table 24). Activity of each of these variants were tested using a time resolved competition TR-FRET assay in which the labeled parent Aptamer 3 was competed with increasing concentrations of unlabeled variants for binding to IL8 (FIG. 14). Briefly, 2-fold dilutions of thermally equilibrated aptamers were made in TR-FRET Buffer (50 mM MOPS, pH 7.4, 125 mM NaCl, 5 mM KCl, 50 μM CHAPS, 0.1 mg/mL BSA, 1 mM CaCl₂, and 1 mM MgCl₂). 5 μL of aptamer or control solution was added to 5 μl mix of 10 nM C-terminal His-tagged-IL8, 60 nM ALEXA FLUOR® 647-labeled Aptamer, and 5 nM anti-His-Eu (Perkin Elmer) in a black wall low volume 384 well plate (Greiner). For control, 5 μl of 1000-fold excess of unlabeled parent aptamer or 5 μl TR-FRET buffer alone was added to the mix of ALEXA FLUOR® 647-labeled aptamer, His-IL8, and anti-His-Eu. The plate was covered with a plate seal and subsequently incubated in the dark for 1 hour at room temperature. The plate was read on a Biotek CYTATION™ 5 plate reader. […]

Q: With GCGACGUAGAUUACGGGUAGAGUGACGCGC (ssRNA, 2'-F G, 2'-OMe A/C/U, 5' C6NH2, 3' idT) [Aptamer 44] as the binder, how does the binding signal read?
A: > 10 fold worse than Aptamer 3

The binders below were run against T1, Interleukin-8 (IL8, CXCL8), C-terminal … (assay: competition; competition TR-FRET; L2 mutant). Conditions: tags: C-terminal 6xHis (Sino Biological).
Procedure: (§3) Activity of each of these variants were tested using a time resolved competition TR-FRET assay in which the labeled parent Aptamer 3 was competed with increasing concentrations of unlabeled variants for binding to IL8 (FIG. 14). Briefly, 2-fold dilutions of thermally equilibrated aptamers were made in TR-FRET Buffer (50 mM MOPS, pH 7.4, 125 mM NaCl, 5 mM KCl, 50 μM CHAPS, 0.1 mg/mL BSA, 1 mM CaCl₂, and 1 mM MgCl₂). 5 μL of aptamer or control solution was added to 5 μl mix of 10 nM C-terminal His-tagged-IL8, 60 nM ALEXA FLUOR® 647-labeled Aptamer, and 5 nM anti-His-Eu (Perkin Elmer) in a black wall low volume 384 well plate (Greiner). For control, 5 μl of 1000-fold excess of unlabeled parent aptamer or 5 μl TR-FRET buffer alone was added to the mix of ALEXA FLUOR® 647-labeled aptamer, His-IL8, and anti-His-Eu. The plate was covered with a plate seal and subsequently incubated in the dark for 1 hour at room temperature. The plate was read on a Biotek CYTATION™ 5 plate reader. Samples were excited at 330 nm and fluorescent values were collected at 665 nm. Data analysis was performed by subtracting the background value and plotting as percent inhibition, normalized to baseline in the absence of competitor. The values were fit by [Inhibitor] vs. response—Variable slope (four parameters) using GraphPad Prism Version 7.0 and then normalized to aptamer control to obtain an IC₅₀ relative to parent aptamer. Data is presented as log values of relative IC₅₀.
as §2

Q: Which binding signal does the source give for CGGUGGGAAAUGUGAGAGGGGUUGCCG (ssRNA, 2'-F G, 2'-OMe A/C/U, 5' C6NH2, 3' idT) [Aptamer 180] here?
A: > 10 fold worse than Aptamer 8

Q: With CGGUGGGAAAUGUCAGAUGGGUUGCCG (ssRNA, 2'-F G, 2'-OMe A/C/U, 5' C6NH2, 3' idT) [Aptamer 168] as the binder, how does the binding signal read?
A: > 10 fold worse than Aptamer 8

Q: For CGGUGGGAAAUGUGCGAUGGGUUGCCG (ssRNA, 2'-F G, 2'-OMe A/C/U, 5' C6NH2, 3' idT) [Aptamer 171], which binding signal is on record?
A: > 10 fold worse than Aptamer 8

Q: With CGGUGGGAAAUGUGGGAUGGGUUGCCG (ssRNA, 2'-F G, 2'-OMe A/C/U, 5' C6NH2, 3' idT) [Aptamer 172] as the binder, how does the binding signal read?
A: > 10 fold worse than Aptamer 8

Q: For CGGUGGGAAAUGUGACAUGGGUUGCCG (ssRNA, 2'-F G, 2'-OMe A/C/U, 5' C6NH2, 3' idT) [Aptamer 174], which binding signal is on record?
A: > 10 fold worse than Aptamer 8

Q: With CGGUGGGAAAUGUGAGGUGGGUUGCCG (ssRNA, 2'-F G, 2'-OMe A/C/U, 5' C6NH2, 3' idT) [Aptamer 178] as the binder, how does the binding signal read?
A: > 10 fold worse than Aptamer 8

What follows are binders tested against T1, Interleukin-8 (IL8, CXCL8), C-terminal … (assay: competition; competition TR-FRET). Conditions: tags: C-terminal 6xHis (Sino Biological).
Procedure: as §3
Variants of Aptamers 94, 99, and 100 were synthesized with an optimized stem S1 and G18 was also replaced with a Sp3 spacer to see if further improvements could be made to these molecules (Table 30 and FIG. 20).

Q: Does GAUGACGGUAGAUUAUGGGCAGUGUGACCGCAUC (ssRNA, 2'-F G, 2'-OMe A/C/U, 5' C6NH2, 3' idT) [Aptamer 146] bind?
A: binds

Q: Does GGCGACGGUAGAUUAUGGGAAGUGUGACCGCGCC (ssRNA, 2'-F G, 2'-OMe A/C/U, 5' C6NH2, 3' idT) [Aptamer 151] bind?
A: binds

Q: Does GCGACGGUAGAUUAUGGGAAGUGUGACCGCGC (ssRNA, 2'-F G, 2'-OMe A/C/U, 5' C6NH2, 3' idT) [Aptamer 152] bind?
A: binds

Q: Does GAUGACGGUAGAUUUCGGGUAGUGUGACCGCAUC (ssRNA, 2'-F G, 2'-OMe A/C/U, 5' C6NH2, 3' idT) [Aptamer 142] bind?
A: binds

Q: Does GAUGACGGUAGAUUAUGGGAAGUGUGACCGCAUC (ssRNA, 2'-F G, 2'-OMe A/C/U, 5' C6NH2, 3' idT) [Aptamer 150] bind?
A: binds

Each binder was assayed against T1, Interleukin-8 (IL8, CXCL8), C-terminal … (assay: TR-FRET). Conditions: tags: C-terminal 6xHis (Sino Biological); label: Alexa Fluor 647.
Procedure: as §1

Q: With UCAGUUGCGGCCCCUGAUACCGAUUUGCCGCCCGGU (ssRNA, 2'-F G, 2'-OMe A/C/U, 5' C6NH2, 3' idT) [Aptamer 15] as the binder, how does the Kd read?
A: 22 nM

Q: Which Kd does the source give for UGGAUGACAUUCGGGGGCACCAAUCAUCGUCUGCU (ssRNA, 2'-F G, 2'-OMe A/C/U, 5' C6NH2, 3' idT) [Aptamer 18] here?
A: 13 nM
